Columns and labels:
Assay type in all cases: biochemical
[1] = Rate of benzoic acid formation from benzoic anhydride by enzymes with esterase activity (HPLC); settings: 50 μM benzoic anhydride, -10 deg. C., pH 7, 5 mins, 60% glycerol/water
Experimental: Standard reaction conditions for the rate determinations in Table 1 are as follows: 60% glycerol/water (w/w), 120 ppm hardness (2:1 Ca:Mg), 10 mM Triethanolamine adjusted to pH 7 with HCl, and […] benzoic anhydride. All incubations were at -10 deg. centigrade for 5 mins. Benzoic acid produced was measured by HPLC via an internal standard (acenaphthylene).
Various enzymes with esterase activity (lipases, esterases, proteases) were tested against benzoic anhydride to determine the rate of formation of acid. As a control, the effect on benzoic anhydride when no esterase was present (i.e., heat killed lipolase) was also measured.

[2] = Enzymatic hydrolysis of phthalic anhydride; settings: 5.0 mM phthalic anhydride; 60.77 EU/g enzyme; room temperature, 50% acetonitrile/water
Experimental: The reaction was carried out at room temperature in a mixed solvent system (50% acetonitrile/water). The buffer and water hardness concentration were identical to that used for the benzoic anhydride systems.

[3] = Enzymatic hydrolysis of benzoic anhydride at pH 5.00 and 10.0 (HPLC); settings: 0.5 mM benzoic anhydride, 50% acetonitrile/water, room temperature, background hydrolysis subtracted
Experimental: A 50% acetronitrile/water system was used in the presence of 120 ppm water hardness solution (2:1 calcium:magnesium), 0.5 mM benzoic anhydride, and 25 ppm acenaphthylene internal standard. The following buffer systems were utilized:
For pH 5.00: 10 mM sodium citrate, adjusted to pH 5.00 with 0.1 citric acid.
For pH 10.0: 10 mM triethanolamine, adjusted to pH 10.0 with 0.1M hydrochloric acid.
All reactions were run on a 10 mL scale at room temperature for a total of 5.00 min. The benzoic anhydride and internal standard were added from a stock solution which was 1.0M benzoic anhydride and […] acenaphthylene in 100% acetonitrile. A total of 5.0 μL of this stock was used (yielding a 1:2000 dilution) to make each reaction 0.5 mM benzoic anhydride and 25 ppm acenaphthylene. Benzoic acid produced was measured by HPLC (high pressure liquid chromatography) using the acenaphthylene internal standard as a reference.

B1: Papain: enzyme listed under Proteases in Table 1 (protein, UniProt P00784 134-345, looked up)
Papain: IPEYVDWRQKGAVTPVKNQGSCGSCWAFSAVVTIEGIIKIRTGNLNEYSEQELLDCDRRSYGCNGGYPWSALQLVAQYGIHYRNTYPYEGVQRYCRSREKGPYAAKTDGVRQVQPYNEGALLYSIANQPVSVVLEAAGKDFQLYRGGIFVGPCGNKVDHAVAAVGYGPNYILIKNSWGTGWGENGYIRIKRGTGNSYGVCGLYTSSFYPVKN
**Q.** Which “Rate (uMol Benzoic Acid prod./enzyme unit/min)” value ([1]; enzyme unit = esterase unit) does the source give for B1 here?
**A.** 6.2 E-3 uMol Benzoic Acid prod./enzyme

B2: Genex 8397: protease; mutant of subtilisin BPN' with MET50→PHE, ASN76→ASP, GLY169→ALA, GLN206→CYS, ASN218→SER (protein, UniProt P00782 108-382, looked up, variant M50F N76D G169A Q206C N218S)
Subtilisin BPN': AQSVPYGVSQIKAPALHSQGYTGSNVKVAVIDSGIDSSHPDLKVAGGASFVPSETNPFQDNNSHGTHVAGTVAALDNSIGVLGVAPSASLYAVKVLGADGSGQYSWIINGIEWAIANNMDVINMSLGGPSGSAALKAAVDKAVASGVVVVAAAGNEGTSGSSSTVGYPAKYPSVIAVGAVDSSNQRASFSSVGPELDVMAPGVSICSTLPGNKYGAYSGTSMASPHVAGAAALILSKHPNWTNTQVRSSLENTTTKLGDSFYYGKGLINVQAAAQ
**Q.** For B2, which “Rate (μmol BA/EU/min)” value [2] is on record?
**A.** 3.03 × 10^-3 μmol BA/EU/min

**Q.** And the “Reaction over 5.00 min.” value ([3]; pH 5.00, 60.0 EU/g. enzyme)?
**A.** 22.34%

**Q.** What about the “Reaction over 5.00 min.” value ([3]; pH 10.0, 3.04 EU/g. enzyme) of the same molecule?
**A.** 63.23%

B3: Lipolase: lipase from Humicola lanuginosa gene expressed in Aspergillus oryzae, commercially available from NOVO Industri A/S (protein, UniProt O59952 23-291, looked up)
Lipase: EVSQDLFNQFNLFAQYSAAAYCGKNNDAPAGTNITCTGNACPEVEKADATFLYSFEDSGVGDVTGFLALDNTNKLIVLSFRGSRSIENWIGNLNFDLKEINDICSGCRGHDGFTSSWRSVADTLRQKVEDAVREHPDYRVVFTGHSLGGALATVAGADLRGNGYDIDVFSYGAPRVGNRAFAEFLTVQTGGTLYRITHTNDIVPRLPPREFGYSHSSPEYWIKSGTLVPVTRNDIVKIEGIDATGGNNQPNIPDIPAHLWYFGLIGTCL
**Q.** Which results are given for B3?
**A.** Reaction over 5.00 min. ([3]; pH 5.00, 50.0 EU/g. enzyme): 33.30%; Reaction over 5.00 min. ([3]; pH 10.0, 15.0 EU/g. enzyme): 86.06%

B4: Heat Killed Lipolase: control: heat killed lipolase, i.e. no esterase present (protein, UniProt O59952 23-291, looked up)
Lipase: B3 Lipase
modifications: heat-inactivated
notes: control: heat killed lipolase, i.e. no esterase present
**Q.** Which “Rate (uMol Benzoic Acid prod./enzyme unit/min)” value ([1]; control, no unit assay printed) does the source give for B4 here?
**A.** 0 uMol Benzoic Acid prod./enzyme

B5: Humicola languinosa: lipase ex Humicola lanuginosa (listed under Lipases) (protein, UniProt O59952 23-291, looked up)
Lipase: B3 Lipase
**Q.** With B5 as the molecule, how does the “Rate (uMol Benzoic Acid prod./enzyme unit/min)” value ([1]; enzyme unit = lipase unit) read?
**A.** 1.08 E-1 uMol Benzoic Acid prod./enzyme
